# Laboratory results taken from publication PMC5812716.
# Assays:
# [1] = biological target: MukF FN2 (E. coli); experiment: SEC-MALS; Superose 6 10/300 GL or Superose 12 10/300; 50 mM HEPES pH 7.5, 100 mM NaCl, 1 mM DTT, 1 mM EDTA; 20 °C; mixtures at stated monomer:dimer molar ratios; some runs with 1 mM ATP
# [2] = biological target: MukF FN2 (E. coli)
# [3] = biological target: MukF FC2 (E. coli); settings: scale: % of the maximal ATPase obtained with MukF
# [4] = biological target: fluorescently labelled FN2, FN10, FN3 and FC2 (E. coli); experiment: fluorescence correlation spectroscopy (FCS) + fluorescence polarisation; range of Kds told for the four Cy5-labelled MukF fragments together (FN2, FN10 by FCS; FN3, FC2 by FPA); MukB titrated
stoichiometry N [1],"MukB ATPase (steady state, phosphate release) with saturating FN2 at a 2.5-fold molar excess, against MukF (% of maximum ATPase) [2]","MukB ATPase (steady state, phosphate release) with saturating FC2 at a 2.5-fold molar excess, against MukF [3]",Kd [4],Binder
2,–,–,–,"MukF FN2 (domain or fragment, modifications not checked) MSEFSQTVPELVAWARKNDFSISLPVDRLSFLLAVATLNGERLDGEMSEGELVDAFRHVSDAFEQTSETIGVRANNAINDMVRQRLLNRFTSEQAEGNAIYRLTPLGIGITDYYIRQREFSTLRLSMQLSIVAGELKRAADAAEEGGDEFHWHRNVYAPLKYSVAEIFDSIDLTQRLMDEQQQQVKDDIAQLLNKDWRAAISSCELLLSETSGTLRELQDTLEAAGDKLQANLLRIQDATMTHDDLHFVDRLVFDLQSKLDRIISWGQQSIDLWIGYDRHVHKFIRT"
–,33,60,9 to 26 nM,MukB (natural protein) MIERGKFRSLTLINWNGFFARTFDLDELVTTLSGGNGAGKSTTMAAFVTALIPDLTLLHFRNTTEAGATSGSRDKGLHGKLKAGVCYSMLDTINSRHQRVVVGVRLQQVAGRDRKVDIKPFAIQGLPMSVQPTQLVTETLNERQARVLPLNELKDKLEAMEGVQFKQFNSITDYHSLMFDLGIIARRLRSASDRSKFYRLIEASLYGGISSAITRSLRDYLLPENSGVRKAFQDMEAALRENRMTLEAIRVTQSDRDLFKHLISEATNYVAADYMRHANERRVHLDKALEFRRELHTSRQQLAAEQYKHVDMARELAEHNGAEGDLEADYQAASDHLNLVQTALRQQEKIERYEADLDELQIRLEEQNEVVAEAIERQQENEARAEAAELEVDELKSQLADYQQALDVQQTRAIQYNQAIAALNRAKELCHLPDLTADCAAEWLETFQAKELEATEKMLSLEQKMSMAQTAHSQFEQAYQLVVAINGPLARNEAWDVARELLREGVDQRHLAEQVQPLRMRLSELEQRLREQQEAERLLADFCKRQGKNFDIDELEALHQELEARIASLSDSVSNAREERMALRQEQEQLQSRIQSLMQRAPVWLAAQNSLNQLSEQCGEEFTSSQDVTEYLQQLLEREREAIVERDEVGARKNAVDEEIERLSQPGGSEDQRLNALAERFGGVLLSEIYDDVSLEDAPYFSALYGPSRHAIVVPDLSQVTEHLEGLTDCPEDLYLIEGDPQSFDDSVFSVDELEKAVVVKIADRQWRYSRFPEVPLFGRAARESRIESLHAEREVLSERFATLSFDVQKTQRLHQAFSRFIGSHLAVAFESDPEAEIRQLNSRRVELERALSNHENDNQQQRIQFEQAKEGVTALNRILPRLNLLADDSLADRVDEIRERLDEAQEAARFVQQFGNQLAKLEPIVSVLQSDPEQFEQLKEDYAYSQQMQRDARQQAFALTEVVQRRAHFSYSDSAEMLSGNSDLNEKLRERLEQAEAERTRAREALRGHAAQLSQYNQVLASLKSSYDTKKELLNDLQRELQDIGVRADSGAEERARIRRDELHAQLSNNRSRRNQLEKALTFCEAEMDNLTRKLRKLERDYFEMREQVVTAKAGWCAVMRMVKDNGVERRLHRRELAYLSADDLRSMSDKALGALRLAVADNEHLRDVLRMSEDPKRPERKIQFFVAVYQHLRERIRQDIIRTDDPVEAIEQMEIELSRLTEELTSREQKLAISSRSVANIIRKTIQREQNRIRMLNQGLQNVSFGQVNSVRLNVNVRETHAMLLDVLSEQHEQHQDLFNSNRLTFSEALAKLYQRLNPQIDMGQRTPQTIGEELLDYRNYLEMEVEVNRGSDGWLRAESGALSTGEAIGTGMSILVMVVQSWEDESRRLRGKDISPCRLLFLDEAARLDARSIATLFELCERLQMQLIIAAPENISPEKGTTYKLVRKVFQNTEHVHVVGLRGFAPQLPETLPGTDEAPSQAS
